T1: FGF23 C-terminal tail peptide (FGF23^C-tail) (human)
T1 construct: The peptide may have been shorter, e.g. S180 to S205
T1 peptide: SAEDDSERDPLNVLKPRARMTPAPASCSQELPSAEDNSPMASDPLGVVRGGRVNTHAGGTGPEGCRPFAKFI

T2: Soluble human α-Klotho ectodomain (αKlotho^ecto) (human, UniProt Q9UEF7 34-981)
T2 construct: also called wild-type αKlotho^ecto; soluble αKlotho
T2 sequence: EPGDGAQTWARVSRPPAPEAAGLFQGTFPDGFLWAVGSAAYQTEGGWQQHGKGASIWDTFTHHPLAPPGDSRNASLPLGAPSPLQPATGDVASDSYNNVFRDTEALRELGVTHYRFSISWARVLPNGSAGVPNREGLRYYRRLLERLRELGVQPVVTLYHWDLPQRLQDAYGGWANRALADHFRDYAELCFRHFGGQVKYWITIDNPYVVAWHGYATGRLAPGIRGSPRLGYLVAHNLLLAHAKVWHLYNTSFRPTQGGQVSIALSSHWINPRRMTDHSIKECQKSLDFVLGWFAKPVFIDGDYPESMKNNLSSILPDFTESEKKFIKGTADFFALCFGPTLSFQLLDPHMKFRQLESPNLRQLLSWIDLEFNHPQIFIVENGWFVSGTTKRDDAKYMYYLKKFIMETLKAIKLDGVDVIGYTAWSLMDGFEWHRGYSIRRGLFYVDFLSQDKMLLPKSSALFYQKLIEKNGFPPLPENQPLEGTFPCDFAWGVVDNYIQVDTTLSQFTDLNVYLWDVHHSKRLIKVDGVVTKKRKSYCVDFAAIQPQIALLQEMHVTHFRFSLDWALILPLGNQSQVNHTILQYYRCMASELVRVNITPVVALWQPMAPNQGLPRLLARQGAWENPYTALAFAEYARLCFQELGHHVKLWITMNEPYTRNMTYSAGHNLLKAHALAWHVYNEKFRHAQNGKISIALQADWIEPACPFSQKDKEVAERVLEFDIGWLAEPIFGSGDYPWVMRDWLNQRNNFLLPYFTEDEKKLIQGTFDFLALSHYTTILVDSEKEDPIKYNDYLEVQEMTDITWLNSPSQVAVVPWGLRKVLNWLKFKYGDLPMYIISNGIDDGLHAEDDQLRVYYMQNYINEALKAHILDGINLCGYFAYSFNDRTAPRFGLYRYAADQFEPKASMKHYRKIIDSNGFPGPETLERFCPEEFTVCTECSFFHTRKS

B1: αKlotho^ecto/ΔRBA (soluble αKlotho ectodomain lacking L544 to T565 of the KL2 β1α1 loop) (receptor)
chain: EPGDGAQTWARVSRPPAPEAAGLFQGTFPDGFLWAVGSAAYQTEGGWQQHGKGASIWDTFTHHPLAPPGDSRNASLPLGAPSPLQPATGDVASDSYNNVFRDTEALRELGVTHYRFSISWARVLPNGSAGVPNREGLRYYRRLLERLRELGVQPVVTLYHWDLPQRLQDAYGGWANRALADHFRDYAELCFRHFGGQVKYWITIDNPYVVAWHGYATGRLAPGIRGSPRLGYLVAHNLLLAHAKVWHLYNTSFRPTQGGQVSIALSSHWINPRRMTDHSIKECQKSLDFVLGWFAKPVFIDGDYPESMKNNLSSILPDFTESEKKFIKGTADFFALCFGPTLSFQLLDPHMKFRQLESPNLRQLLSWIDLEFNHPQIFIVENGWFVSGTTKRDDAKYMYYLKKFIMETLKAIKLDGVDVIGYTAWSLMDGFEWHRGYSIRRGLFYVDFLSQDKMLLPKSSALFYQKLIEKNGFPPLPENQPLEGTFPCDFAWGVVDNYIQVDTTLSQFTDKKRKSYCVDFAAIQPQIALLQEMHVTHFRFSLDWALILPLGNQSQVNHTILQYYRCMASELVRVNITPVVALWQPMAPNQGLPRLLARQGAWENPYTALAFAEYARLCFQELGHHVKLWITMNEPYTRNMTYSAGHNLLKAHALAWHVYNEKFRHAQNGKISIALQADWIEPACPFSQKDKEVAERVLEFDIGWLAEPIFGSGDYPWVMRDWLNQRNNFLLPYFTEDEKKLIQGTFDFLALSHYTTILVDSEKEDPIKYNDYLEVQEMTDITWLNSPSQVAVVPWGLRKVLNWLKFKYGDLPMYIISNGIDDGLHAEDDQLRVYYMQNYINEALKAHILDGINLCGYFAYSFNDRTAPRFGLYRYAADQFEPKASMKHYRKIIDSNGFPGPETLERFCPEEFTVCTECSFFHTRKS
notes: the mature protein is E34 to S959; Expressed and purified like the wild type (pEF1α/myc-His A); also called α-Klotho^ecto/deltaRBA; αKlotho^ecto/ΔRBA mutant
B2: FGF23^ΔSRBS (FGF23^WT carrying M149A/N150A/P151A) (ligand)
chain: YPNASPLLGSSWGGLIHLYTATARNSYHLQIHKNGHVDGAPHQTIYSALMIRSEDAGFVVITGVMSRRYLCMDFRGNIFGSHYFDPENCRFQHQTLENGYDVYHSPQYHFLVSLGRAKRAFLPGAAAPPYSQFLSRRNEIPLIHFNTPIPRQHTQSAEDDSERDPLNVLKPRARMTPAPAS
B3: FGFR1c^ecto (human FGFR1c ligand-binding domain, D2, D3 and D2-D3 linker) (receptor)
chain: DNTKPNRMPVAPYWTSPEKMEKKLHAVPAAKTVKFKCPSSGTPNPTLRWLKNGKEFKPDHRIGGYKVRYATWSIIMDSVVPSDKGNYTCIVENEYGSINHTYQLDVVERSPHRPILQAGLPANKTVALGSNVEFMCKVYSDPQPHIQWLKHIEVNGSKIGPDNLPYVQILKTAGVNTTDKEMEVLHLRNVSFEDAGEYTCLAGNSIGLSHHSAWLTVLEALEER

Legend:
[1] = molecular target: T1, FGF23 C-terminal tail peptide …; experiment: fluorescence dye-based thermal shift assay (SYPRO Orange), 1:1 mixture; over the peak of αKlotho^ecto/ΔRBA alone the sheet prints 51 [right]
Description: Fluorescence Dye-Based Thermal Shift Assay: SYPRO Orange dye (#S6650, ThermoFisher Scientific, USA) was used as the fluorescent probe. 15 μl of 20 μM solutions of protein samples (wild-type and mutated forms of FGF23; αKlotho^ecto or αKlotho^{ecto/ΔRBA} alone; 1:1 mixtures of αKlotho^ecto or αKlotho^{ecto/ΔRBA} with FGF23 C-terminal tail peptide) were mixed with 5 μl of working dye solution (1:25 dilution) in duplicate in PCR strips. A temperature gradient from 4° C. to 100° C. at 1° C./minute increment was carried out with a CFX96 Touch™ Real-Time PCR Detection System (Bio-Rad, USA). Fluorescence was recorded as a function of temperature in real time. The melting temperature (Tm) was calculated with StepOne software v2.2 as the maximum of the derivative of the resulting SYPRO Orange fluorescence curves.

[2] = molecular target: T2, Soluble human α-Klotho ectodomain …; experiment: SEC-MALS, 1:1:1 mixture with FGFR1c^ecto and αKlotho^ecto
Description: (§1) A Superdex 200 10/300 GL column (GE Healthcare, USA) was placed in-line between the HPLC pump (Waters 1525) and the HPLC UV (Waters 2998 Photodiode Array), laser light scattering, and refractive index detectors. Light scattering and refractive index detectors were calibrated following the manufacturer's guidelines. The refractive index increment (dn/dc) in which n is the refractive index and c is the concentration of the mixture of DDM and CHS in 20 mM Tris-HCl pH 8.0 buffer containing 300 mM NaCl, was determined offline using an Optilab T-rEX refractive index detector. Monomeric bovine serum albumin (#23210, Thermo Scientific, USA) was used as part of routine data quality control.
(§2) 60 ml or more of 25 mM HEPES pH 7.5 buffer containing 150 mM NaCl were passed through the system at a flow rate of 0.5 mL/min to equilibrate the Superdex 200 10/300 GL column and establish stable baselines for light scattering and refractive index detectors. Purified αKlotho^ecto, FGER1c^ecto (wild type or mutant), and FGF23 (wild type or mutant) proteins were mixed at a molar ratio of 1:1:1 and concentrated to 12.5 μM. 50 μl of protein samples with a molar equivalent of a heparin hexasaccharide (#H006, Iduron, Manchester, U.K.) were injected onto the gel filtration column, and the column eluent was continuously monitored for 280 nm absorbance, laser light scattering, and refractive index. […]

[3] = molecular target: B3; experiment: SEC-MALS, 1:1:1 ternary complex with FGFR1c^ecto and αKlotho^ecto
Description: as §1, §2

[4] = molecular target: B1; experiment: SEC-MALS of a 1:1 mixture, UV280 absorbance and molecular weight against retention time [panel A]
[5] = molecular target: T2, Soluble human α-Klotho ectodomain …; experiment: as above

Binder: B1
melting temperature (peak of derivative fluorescence) of the mixture [1]: 57.5 °C

Binder: B2
binding result [2]: binds
binding result [3]: binds

Binder: B3
binding result [4]: no binding
binding result [5]: binds
